Measured values: patent US20250243277A1 (AVACTA LIFE SCIENCES, published 2025)
Where a chain is given by its changes, count along the chain named.

B1: Clone 114 (designed binder)
chain: MIPGGLSEAKPATPEIQEIVDKVKPQLEEKTGETYGKLEAVQYKTQVDQSSDLAKLWGTNYYIKVRAGDNKYMHLKVFKSLWNLNSDKSSEDLVLTGYQVDKNKDDELTGF
notes: His-tagged
B2: Clone 1 (designed binder)
chain: MIPGGLSEAKPATPEIQEIVDKVKPQLEEKTGETYGKLEAVQYKTQVVVYHVRWNYLGTNYYIKVRAGDNKYMHLKVFKSLSLEEPPVETEDLVLTGYQVDKNKDDELTGF
notes: His-tagged
B3: Clone 109 (designed binder)
chain: MIPGGLSEAKPATPEIQEIVDKVKPQLEEKTGETYGKLEAVQYKTQVDISGVGLVPNGTNYYIKVRAGDNKYMHLKVFKSLNWNYPQQPFEDLVLTGYQVDKNKDDELTGF
notes: His-tagged
B4: Clone 118 (designed binder)
chain: MIPGGLSEAKPATPEIQEIVDKVKPQLEEKTGETYGKLEAVQYKTQVDVISIPLVWNGTNYYIKVRAGDNKYMHLKVFKSLIFQEYYPHREDLVLTGYQVDKNKDDELTGF
notes: His-tagged
B5: Clone 122 (designed binder)
chain: B4 chain with S51H, L54H, V55Q, N57H, Q84H, Y86P, Y87K, H89P
notes: His-tagged
B6: Clone 196 (designed binder)
chain: MIPGGLSEAKPATPEIQEIVDKVKPQLEEKTGETYGKLEAVQYKTQVVLLWTPPYVDGTNYYIKVRAGDNKYMHLKVFKSLGWNDDHSVGEDLVLTGYQVDKNKDDELTGF
notes: His-tagged
B7: Clone 12 (designed binder)
chain: B6 chain with L49Q, W51K, T52F, D57S, N84D, D86K, H87P, S88E, V89W, G90D
notes: His-tagged
B8: Clone 102 (designed binder)
chain: MIPGGLSEAKPATPEIQEIVDKVKPQLEEKTGETYGKLEAVQYKTQVDRKAAVVARHGTNYYIKVRAGDNKYMHLKVFKSLWPFLVIEKYEDLVLTGYQVDKNKDDELTGF
notes: His-tagged
B9: Clone 113 (designed binder)
chain: MIPGGLSEAKPATPEIQEIVDKVKPQLEEKTGETYGKLEAVQYKTQVDWVTRHHTLVGTNYYIKVRAGDNKYMHLKVFKSLPPFKHWHLEDLVLTGYQVDKNKDDELTGF
notes: His-tagged
B10: Clone 116 (designed binder)
chain: B9 chain
notes: His-tagged
B11: Clone 108 (designed binder)
chain: MIPGGLSEAKPATPEIQEIVDKVKPQLEEKTGETYGKLEAVQYKTQVDREHASVKFWGTNYYIKVRAGDNKYMHLKVFKSLWLEATPHTQEDLVLTGYQVDKNKDDELTGF
notes: His-tagged
B12: Clone 119 (designed binder)
chain: MIPGGLSEAKPATPEIQEIVDKVKPQLEEKTGETYGKLEAVQYKTQVDSWVFKPFYHGTNYYIKVRAGDNKYMHLKVFKSLSGPEFFSRHEDLVLTGYQVDKNKDDELTGF
notes: His-tagged
B13: Clone 95 (designed binder)
chain: MIPGGLSEAKPATPEIQEIVDKVKPQLEEKTGETYGKLEAVQYKTQVDTIHPQAKYWGTNYYIKVRAGDNKYMHLKVFKSLWKNLLKPIHEDLVLTGYQVDKNKDDELTGF
notes: His-tagged
B14: Clone 104 (designed binder)
chain: MIPGGLSEAKPATPEIQEIVDKVKPQLEEKTGETYGKLEAVQYKTQVDNAHPLVKNWGTNYYIKVRAGDNKYMHLKVFKSLWRNDTSSIYEDLVLTGYQVDKNKDDELTGF
notes: His-tagged
B15: Clone 11 (designed binder)
chain: MIPGGLSEAKPATPEIQEIVDKVKPQLEEKTGETYGKLEAVQYKTQVVEVQQQENFQGTNYYIKVRAGDNKYMHLKVFKSLHIYEHIVYREDLVLTGYQVDKNKDDELTGF
notes: His-tagged
B16: Clone 56 (designed binder)
chain: MIPGGLSEAKPATPEIQEIVDKVKPQLEEKTGETYGKLEAVQYKTQVVGGRHRWNWSGTNYYIKVRAGDNKYMHLKVFKSLFEPSGLAAEEDLVLTGYQVDKNKDDELTGF
notes: His-tagged
B17: Clone 84 (designed binder)
chain: MIPGGLSEAKPATPEIQEIVDKVKPQLEEKTGETYGKLEAVQYKTQVVLIRHLWSWSGTNYYIKVRAGDNKYMHLKVFKSLFEGENHQIDEDLVLTGYQVDKNKDDELTGF
notes: His-tagged
B18: Clone 77 (designed binder)
chain: MIPGGLSEAKPATPEIQEIVDKVKPQLEEKTGETYGKLEAVQYKTQVVWDRPRWGWTGTNYYIKVRAGDNKYMHLKVFKSLFKESSRNDEEDLVLTGYQVDKNKDDELTGF
notes: His-tagged
B19: Clone 86 (designed binder)
chain: MIPGGLSEAKPATPEIQEIVDKVKPQLEEKTGETYGKLEAVQYKTQVVDVRGQWAWTGTNYYIKVRAGDNKYMHLKVFKSLFQPRTKATEEDLVLTGYQVDKNKDDELTGF
notes: His-tagged
B20: Clone 194 (designed binder)
chain: MIPGGLSEAKPATPEIQEIVDKVKPQLEEKTGETYGKLEAVQYKTQVVEERRIWNWTGTNYYIKVRAGDNKYMHLKVFKSLFTASDTHPAEDLVLTGYQVDKNKDDELTGF
notes: His-tagged
B21: Clone 149 (designed binder)
chain: MIPGGLSEAKPATPEIQEIVDKVKPQLEEKTGETYGKLEAVQYKTQVVKTLGVWHWSGTNYYIKVRAGDNKYMHLKVFKSLFEQHAENIEEDLVLTGYQVDKNKDDELTGF
notes: His-tagged
B22: Clone 103 (designed binder)
chain: MIPGGLSEAKPATPEIQEIVDKVKPQLEEKTGETYGKLEAVQYKTQVDFSFPLVHWYGTNYYIKVRAGDNKYMHLKVFKSLRFRDGGHHVEDLVLTGYQVDKNKDDELTGF
notes: His-tagged
B23: Clone 117 (designed binder)
chain: MIPGGLSEAKPATPEIQEIVDKVKPQLEEKTGETYGKLEAVQYKTQVDHEVRKTYEFGTNYYIKVRAGDNKYMHLKVFKSLWFGGWPLAQEDLVLTGYQVDKNKDDELTGF
notes: His-tagged
B24: Clone 112 (designed binder)
chain: MIPGGLSEAKPATPEIQEIVDKVKPQLEEKTGETYGKLEAVQYKTQVDRFYHQWHFLGTNYYIKVRAGDNKYMHLKVFKSLDLRAPRNDNEDLVLTGYQVDKNKDDELTGF
notes: His-tagged
B25: Clone 115 (designed binder)
chain: B24 chain
notes: His-tagged
B26: Clone 10 (designed binder)
chain: MIPGGLSEAKPATPEIQEIVDKVKPQLEEKTGETYGKLEAVQYKTQVVDDVKNGFVQGTNYYIKVRAGDNKYMHLKVFKSLIDRHVYWLEEDLVLTGYQVDKNKDDELTGF
notes: His-tagged
B27: Clone 110 (designed binder)
chain: MIPGGLSEAKPATPEIQEIVDKVKPQLEEKTGETYGKLEAVQYKTQVDHTQPKALDWGTNYYIKVRAGDNKYMHLKVFKSLWGSILTDGPEDLVLTGYQVDKNKDDELTGF
notes: His-tagged
B28: Clone 101 (designed binder)
chain: MIPGGLSEAKPATPEIQEIVDKVKPQLEEKTGETYGKLEAVQYKTQVDHHHRFAKWWGTNYYIKVRAGDNKYMHLKVFKSLWFNENREDTEDLVLTGYQVDKNKDDELTGF
notes: His-tagged
B29: Clone 40 (designed binder)
chain: MIPGGLSEAKPATPEIQEIVDKVKPQLEEKTGETYGKLEAVQYKTQVVKRRHFPQWQGTNYYIKVRAGDNKYMHLKVFKSLGDHLNQYPNEDLVLTGYQVDKNKDDELTGF
notes: His-tagged
B30: Clone 184 (designed binder)
chain: MIPGGLSEAKPATPEIQEIVDKVKPQLEEKTGETYGKLEAVQYKTQVVHRKHFHQFTGTNYYIKVRAGDNKYMHLKVFKSLSNDYYETYLEDLVLTGYQVDKNKDDELTGF
notes: His-tagged
B31: Clone 175 (designed binder)
chain: MIPGGLSEAKPATPEIQEIVDKVKPQLEEKTGETYGKLEAVQYKTQVVWRRWFPQWPGTNYYIKVRAGDNKYMHLKVFKSLPEADADDPKEDLVLTGYQVDKNKDDELTGF
notes: His-tagged
B32: Clone 246 (designed binder)
chain: MIPGGLSEAKPATPEIQEIVDKVKPQLEEKTGETYGKLEAVQYKTQVVERFHFPQFPGTNYYIKVRAGDNKYMHLKVFKSLPHLDYIWNWEDLVLTGYQVDKNKDDELTGF
notes: His-tagged
B33: Clone 48 (designed binder)
chain: MIPGGLSEAKPATPEIQEIVDKVKPQLEEKTGETYGKLEAVQYKTQVVTRKHFPQYWGTNYYIKVRAGDNKYMHLKVFKSLNEPLPVTNIEDLVLTGYQVDKNKDDELTGF
notes: His-tagged
B34: Clone 247 (designed binder)
chain: MIPGGLSEAKPATPEIQEIVDKVKPQLEEKTGETYGKLEAVQYKTQVVRREHFPRWPGTNYYIKVRAGDNKYMHLKVFKSLDLLLRKEEVEDLVLTGYQVDKNKDDELTGF
notes: His-tagged
B35: Clone 105 (designed binder)
chain: MIPGGLSEAKPATPEIQEIVDKVKPQLEEKTGETYGKLEAVQYKTQVDETSENVIQWGTNYYIKVRAGDNKYMHLKVFKSLWPADILTQHEDLVLTGYQVDKNKDDELTGF
notes: His-tagged
B36: Clone 107 (designed binder)
chain: MIPGGLSEAKPATPEIQEIVDKVKPQLEEKTGETYGKLEAVQYKTQVDFTDIHWSTWGTNYYIKVRAGDNKYMHLKVFKSLIPAWQQIHVEDLVLTGYQVDKNKDDELTGF
notes: His-tagged

target: T1, human PD-L1-Fc (R&D Systems) (human, UniProt Q9NZQ7 19-239); experiment: soluble Affimer ELISA
T1 construct: Bought from R&D Systems; Biotinylated in-house for the phage selection; also called huPD-L1-Fc; human PD-L1-Fc antigen; not shown: Fc part of the bought fusion
T1 sequence (Q9NZQ7 19-239 limits assumed): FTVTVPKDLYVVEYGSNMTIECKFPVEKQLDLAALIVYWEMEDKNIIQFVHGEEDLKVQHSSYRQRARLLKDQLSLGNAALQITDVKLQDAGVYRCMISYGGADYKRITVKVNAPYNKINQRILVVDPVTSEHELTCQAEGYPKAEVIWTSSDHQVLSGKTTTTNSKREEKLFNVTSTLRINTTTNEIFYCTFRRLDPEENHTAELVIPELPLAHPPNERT

binding result | Binder
binds | B1
binds | B2
binds | B3
binds | B4
binds | B5
binds | B6
binds | B7
binds | B8
binds | B9
binds | B10
binds | B11
binds | B12
binds | B13
binds | B14
binds | B15
binds | B16
binds | B17
binds | B18

binding result | Binder
binds | B19
binds | B20
binds | B21
binds | B22
binds | B23
binds | B24
binds | B25
binds | B26
binds | B27
binds | B28
binds | B29
binds | B30
binds | B31
binds | B32
binds | B33
binds | B34
binds | B35
binds | B36
